In this assay the target is LexA/Bax fusion protein (murine) (UniProt P0A7C2).
Substance B42/Bcl-2(83-218) hybrid yielded a colony formation of yeast cotransformed with LexA/Bax, galactose medium (neutralization of Bax activity) of 16. The substance B42/Lamin showed a colony formation of yeast cotransformed with LexA/Bax, galactose medium (neutralization of Bax activity) of 8.

Take B42/Bcl-2(1-81) hybrid: the colony formation of yeast cotransformed with LexA/Bax, galactose medium (neutralization of Bax activity) turned out to be 19. In the case of B42/Mcl-1 hybrid it was 290; in that of B42/Bcl-2(1-218) hybrid, 280; in that of B42/Bcl-X-L hybrid, 300. B42/Bcl-X-S hybrid: the colony formation of yeast cotransformed with LexA/Bax, galactose medium (neutralization of Bax activity) was determined as 10.
